Data reported in article PMC7943015.

Target: CgYps1 (C. glabrata (endogenous in derivatives of strain BG2))
Experiment: co-IP; precleared lysates (6 mg) incubated with anti-CgYps1 antibody-conjugated beads for 12 h at 4°C; blots with anti-CgYps1 and anti-CgPst2; cells untreated or treated with menadione (90 μM for 90 min)

Q: “CgPst2 (from UniProt Q6FM13 1-198) (natural protein)” was tested. Which amount of CgPst2 co-precipitated in MD-treated against untreated cells did it give?
A: The amount of CgPst2 co-precipitated in MD-treated against untreated cells was 40 % lower.
